{"source": "paper PMC6823310", "about": "“XszenFHal, a novel tryptophan 5-halogenase from Xenorhabdus szentirmaii” (AMB Express, 2019)", "proteins": {"B1": {"name": "XszenFHal (FHal16) (Xenorhabdus szentirmaii DSM 16338) (protein)", "chain": "MINSVLIVGGGTAGWMTAAYLSKAFDKNINITVVESKEVKKIGVGEATFSTVRHYFDYLGLNESEWLPECSGSYKLGIRFENWDGQGNHFYHPFERWEVVKGFPISEWWLSKKLKDQRFDYDTFLTPHLCEAKRSPRRLDGSLFAQSIDKSLGQSTLAEQRAQYPYAYHFDADGVASFLKRYAMNRGVKHIEDDVTHVEIDTNGNIGYLEAKIYGKLRADLYIDCTGFKGLLINKALNEPFISFSDVLKNNRAVALRVPRENENDIEPYTTARTMSNGWRWTIPLYKRNGYGYVYCNKYQSPEEAEMELRKSIPYENAECVANHIRMRIGRSNRSWVKNCVAIGLSSAFVEPLESTGIFFIQHGIEQLVRFFPRSSGNELLIEEYNTRVNRVVDGVKEFLLLHFSLAQRNDTLYWKEWKNVELPKELLKKITLAQDHLLDKETIYPFYHGFEEYSWNTMILGLCSGSLNNKPALSLMTSDEADEMLLQHYMKAENMVNNLPTCYEYLKHIHDLKNKN", "notes": "N-terminal His tag (modified pET22b(+)), expressed in E. coli BL21-CodonPlus (DE3)-RIPL"}}, "substrate": "N[C@@H](Cc1c[nH]c2ccccc12)C(=O)O", "assay": "initial rates of chlorination by UHPLC-UV, Michaelis-Menten fit", "format": "biochemical, Xenorhabdus szentirmaii", "conditions": "20 mM NaCl, 0.05 mM NADH, 0.01 mM FAD, flavin reductase K12Fre 0.1 μM, phosphate pH 7.5, 25 °C", "data": [{"protein": "B1", "values": [{"measurement": "Km", "value": 58.22, "unit": "µM"}, {"measurement": "kcat", "value": 0.074, "unit": "s⁻¹"}]}]}
